Measurements from US8013137B2, “Modified enteropeptidase protein” (National University Corporation Hokkaido University, priority 2006, dated 2011).

What was measured:
medaka EP-2 protease = assay: Inhibitor assay, enzyme activity measured using GD4K-βNA as a substrate; format: biochemical, medaka (Oryzias latipes); details: inhibitor 0.1 mg/ml; GD4K-βNA substrate; 10 min preincubation
medaka EP-1 protease = assay: as above; format: biochemical, medaka (Oryzias latipes); details: inhibitor 0.1 mg/ml; GD4K-βNA substrate; 10 min preincubation
Chain of medaka EP-1 protease (as listed by the source): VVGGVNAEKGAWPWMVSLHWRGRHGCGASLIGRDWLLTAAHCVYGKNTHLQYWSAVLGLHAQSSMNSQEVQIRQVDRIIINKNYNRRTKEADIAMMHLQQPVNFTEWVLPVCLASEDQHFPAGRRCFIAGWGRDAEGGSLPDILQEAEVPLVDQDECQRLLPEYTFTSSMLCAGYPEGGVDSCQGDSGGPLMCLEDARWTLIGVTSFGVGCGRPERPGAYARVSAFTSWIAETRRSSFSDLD

B1: SBTI (protein)
chain: DFVLDNEGNPLENGGTYYILSDITAFGGIRAAPTGNERCPLTVVQSRNELDKGIGTIISSPYRIRFIAEGHPLSLKFDSFAVIMLCVGIPTEWSVVEDLPEGPAVKIGENKDAMDGWFRLERVSDDEFNNYKLVFCPQQAEDDKCGDIGISIDHDDGTRRLVVSKNKPLVVQFQKLDKESL
- Inhibition (%) EP-2 (medaka EP-2 protease): 99%
- Inhibition (%) EP-1 (medaka EP-1 protease): 99%
